Assay results published in patent US20190284262A1 (Memorial Sloan Kettering, published 2019).

B1: EXT017-21 scFv phage clone (scFv)
scFv: SYELTQPPSVSVAPGQTASMTCGGNNIGSKSVHWYQQKPSQAPVMVVHDDSERPSGIPERISGSKSGNTATLTISRVEAGDEADYYCQVWDSSSDHVIFGGGTKLTVLGSRGGGGSGGGGSGGGGSLEMAQVQLVQSGAEVKKPGASVKVSCKASGYTFTNYYIHWVRQAPGQGLEWMGIIRPSGGITNYAQKFQGRVSMTRDTSTSTVYMELSSLRSEDTAVYYCARSWMSDSYYDGWGQGTLVTVSSTSGQAGQHHHHHHGAYPYDVPDYAS
notes: also called phage clone #21
B2: EXT017-32 scFv phage clone (scFv)
scFv: QSVLTQPPSVSVAPGKTARITCGGNNIGSKSVHWYQQKPGQAPVLVIYYDSDRPSGIPERFSGSNSGNTATLTISRVEAGDEADYYCQVWDSSSDHYVFGTGTKVTVLGSRGGGGSGGGGSGGGGSLEMAEVQLVESGGGVVQPGRSLRLSCAASGFTFNNHAMHWVRQAPGKGLEWVAVISFDGDDKFYADSVKGRFTISRDNSRNTLFLQMNNLRPEDTAVYYCSRDPYHFASGSYSYFDYWGQGTLVTVSSTSGQAGQHHHHHHGAYPYDVPDYAS
notes: also called EXT017-32 phage; phage clone #32
B3: EXT017-28 scFv phage clone (scFv)
scFv: QSVLTQPPSVSGAPGQRVTISCTGSSSNIGAGYDVHWYQQLPGTAPKLLIYGNSDRPSGVPDRFSGSKSGTSASLAITGLQAEDEADYYCQSYDSSLSGYVFGTGTKVTVLGSRGGGGSGGGGSGGGGSLEMAQMQLVQSGAEVKKPGSSVKVSCKASGGTFSTYAISWVRQAPGQGLEWMGGIIPIFGTANYAQKFQGRVTITADKSTSTAYMEVRNLRSEDTAVYYCARAEYVYGEYDQWGQGTLVTVSSTSGQAGQHHHHHHGAYPYDVPDYAS
notes: full-length scFv with His+HA tags; also called EXT017-28 phage; phage clone #28
B4: EXT017-54 scFv phage clone (scFv)
scFv: QAVLTQPPSLSGGPRQRVTISCSGSTSNIGKNGVSWYQQLPGKAPKLLIYNDHLLSSGVSDRFSGSKSGTSASLAISGLQSDDEADYYCATWDDTLDLPLFGGGTKVTVLGSRGGGGSGGGGSGGGGSLEMAQMQLVQSGAEVEKPGASVKLSCKASGGTFSSYAISWVRQAPGQGLEWMGGIIPIFGTANYAQKFQGRVTITADESTSTAYMELSSLRSEDTAVYYCARPSYYSIKSAWDHWGQGTLVTVSSTSGQAGQHHHHHHGAYPYDVPDYAS
notes: full-length scFv with His+HA tags; also called EXT017-54 phage
B5: #55 (scFv)
scFv (VL-linker-VH-His/HA tag): QSALTQPASVSGSPGQSITISCTGPTSDFNDYLFVSWYQQHPGKAPKLILYDVTHRPSGVSGRFSGSKSASTASLTISGLQAEDEADYFCGSKTGRTTYVFGTGTKVTVLGSRGGGGSGGGGSGGGGSLEMAQVQLVQSGAEVKKPGASVKVSCKASGYTFDNFGISWVRQAPGQGLEWMGWINTYDGYTNYVEKLQGRVTMTTDTSTGTAYMELRGLRSDDTAVYYCARSVPHQISYGDLWGQGTLVTVSSTSGQAGQHHHHHHGAYPYDVPDYAS
notes: also called EXT017-55; EXT017-55 scFv phage clone
B6: #29 (scFv)
scFv (VL-linker-VH-His/HA tag): QSVLTQPPSVSAAPRQKVTISCSGSSSNIGNNYVSWYQQLPGTAPKLLIYDDNKRPSGIPDRFSGSKSGTSATLGITGLQTGDEADYYCGTWDSSLSAVVFGGGTKLTVLGSRGGGGSGGGGSGGGGSLEMAQVQLVQSGTEVKRAGASVKVSCKASGYTFTNYYMHWVRQAPGQGLEWMGIINPSIGSTNYAQKFQGRVTMTRDTSTSTVFMELSSLRSDDTAVYYCARSFGDSDGADSWGQGTLVTVSSTSGQAGQHHHHHHGAYPYDVPDYAS
notes: also called EXT017-29; EXT017-29 scFv phage clone
B7: #25 (scFv)
scFv (VL-linker-VH-His/HA tag): QSVLTQPPSVSAAPGQKVTISCSGSSSNIGNNYVSWYQFLPGTAPKLLIYDNNQRPSGIPDRFSGFKSGTSATLDITGLQTGDEADYYCGTWDNSLSAAVFGRGTKLTVLGSRGGGGSGGGGSGGGGSLEMAQMQLVQSGTEVKRAGASVKVSCKASGYTFTNYYMHWVRQAPGQGLEWMGIINPSGGSTTYAQKFQGRVTMTRDTSTSTVYMELSDLGSEDTAVYYCARSWSKTEGSDRWGQGTLVTVSSTSGQAGQHHHHHHGAYPYDVPDYAS
notes: also called EXT017-25; EXT017-25 scFv phage clone
B8: #34 (scFv)
scFv (VL-linker-VH-His/HA tag): QSALTQPPSASGSPGQSVTISCTGTSSDVGAYNYVSWYQHYPGKAPKLMIYEVSERPSGVPDRFSGSKSGNTASLTVSGLQAEDEADYFCSSYAGSNNFVFGTGTKVTVLGSRGGGGSGGGGSGGGGSLEMAEVQLVQSGAEVKKPGSSVKVSCKASGGTFSSYAISWVRQAPGQGLEWMGRIIPILGIANYAQKFQGRVTITADKSSSTAYMALSSLTSEDTAVYYCARGGDYVESWFDPWGQGTLVTVSSTSGQAGQHHHHHHGAYPYDVPDYAS
notes: also called EXT017-34; EXT017-34 scFv phage clone

Target: T1, R3 (RHAMM-R3) peptide/HLA-A*02:01 complex on T2 cells (human)
T1 construct: Control target of the phage staining of T2 cells; also called T2 cells pulsed with R3 peptide; RHAMM 3 (R3)
Assay: flow cytometry, phage on T2 + R3 peptide; secondary only 123, unstained 99.8

Going from B1 to B2, the “Median:FITC-A” value falls from 143 to 136.

B3 was tested, and the “Median:FITC-A” value was 140.

Target: T2, HLA-A*02:01 on T2 cells alone (no peptide added) (human)
T2 construct: TAP-deficient T2 cells without pulsed peptide; negative control target, and the HLA molecule whose stabilisation by peptides is read in the T2 stabilization assay; also called HLA-A*02 molecule; HLA-A2 molecule
Assay: flow cytometry, phage on T2 cells, no peptide

First: B2
Second: B4
The MFI of the first is higher: 91.8 for the first, 89.9 for the second.

In the case of B3, the MFI is reported as 93.9.

Target: T3, T2+EW (Homo sapiens, UniProt A*02:01)
T3 construct: on the surface of T2 cells; irrelevant control peptide; also called EW peptide/HLA-A*02:01 complex on T2 cells; T2 pulsed with EW peptide
Assay: flow cytometry, phage on T2 + EW peptide; secondary only 310, unstained 93

First: B5
Second: B6
The “Median:FITC-A” value of the first is higher: 391 for the first, 359 for the second.

Compared with B7, B2 is lower in “Median:FITC-A” value: 375 for the first, 357 for the second.

Compared with B4, B8 is higher in “Median:FITC-A” value: 364 for the first, 386 for the second.

In the case of B3, the “Median:FITC-A” value is reported as 338.

Target: T4, Foxp3-7 peptide/HLA-A*02:01 complex on the cell surface (human)
T4 construct: also called Foxp3-7/HLA-A2 complex
Assay: flow cytometry, phage on T2 + Foxp3-7 peptide; secondary only 133, unstained 103

With B1 the “Median:FITC-A” value was 1550.

Target: T2, HLA-A*02:01 on T2 cells alone (no …)
Assay: flow cytometry, phage on T2 without peptide; secondary only 320, unstained 91.4

Going from B5 to B6, the “Median:FITC-A” value falls from 389 to 369.

Compared with B7, B2 is lower in “Median:FITC-A” value: 386 for the first, 356 for the second.

First: B4
Second: B8
The “Median:FITC-A” value of the first is lower: 343 for the first, 361 for the second.

In the case of B3, the “Median:FITC-A” value is reported as 353.

Target: T2, HLA-A*02:01 on T2 cells alone (no …)
Assay: flow cytometry, phage on T2 without peptide; secondary only 121, unstained 106

Going from B1 to B2, the “Median:FITC-A” value falls from 147 to 138.

B3 was tested, and the “Median:FITC-A” value was 144.

Target: T1, R3 (RHAMM-R3) peptide/HLA-A*02:01 …
Assay: flow cytometry, phage on T2 + R3 peptide (as the table names the samples); secondary only 109, unstained 80.9

B1 and B2 are the same in “Median:FITC-A” value: 123 for the first, 123 for the second.

Going from B4 to B3, the “Median:FITC-A” value falls from 122 to 118.

Target: T2, HLA-A*02:01 on T2 cells alone (no …)
Assay: flow cytometry, phage on T2 without peptide

B5: no binding.
B6: no binding.
B7: no binding.
B4: no binding.
B8: no binding.

Target: T5, 017-mut2 peptide (…)/HLA-A*02:01 complex on T2 cells (human)
T5 construct: Alanine mutant at position 2, the anchor position; the peptide may load poorly onto HLA-A2; also called EXT017-mut2
Assay: flow cytometry, phage on peptide-loaded T2 cells

Going from B2 to B4, the MFI falls from 103 to 94.7.

Binder B3 has an MFI of 102.

Target: T6, 017-mut8 peptide (…)/HLA-A*02:01 complex on T2 cells (human)
T6 construct: Alanine mutant at position 8; also called TLI-A8
Assay: flow cytometry, phage on peptide-loaded T2 cells

First: B2
Second: B4
The MFI of the first is lower: 96.7 for the first, 5850 for the second.

With B3 the MFI was 27500.

Target: T7, 017-mut9 peptide (…)/HLA-A*02:01 complex on T2 cells (human)
T7 construct: Alanine mutant at position 9
Assay: flow cytometry, phage on peptide-loaded T2 cells

Going from B2 to B4, the MFI rises from 93.6 to 3540.

In the case of B3, the MFI is reported as 5890.

Target: T8, 017-mut3 peptide (…)/HLA-A*02:01 complex on T2 cells (human)
T8 construct: Alanine mutant at position 3
Assay: flow cytometry, phage on peptide-loaded T2 cells

First: B2
Second: B4
The MFI of the first is higher: 21000 for the first, 7780 for the second.

Binder B3 has an MFI of 13400.

Target: T9, 017-mut1 peptide (…)/HLA-A*02:01 complex on T2 cells (human)
T9 construct: Alanine mutant of Foxp3-7 at position 1, pulsed onto T2 cells; also called EXT017-mut1
Assay: flow cytometry, phage on peptide-loaded T2 cells

Going from B2 to B4, the MFI rises from 15100 to 23500.

With B3 the MFI was 20100.

Target: T10, 017-mut4 peptide (…)/HLA-A*02:01 complex on T2 cells (human)
T10 construct: Alanine mutant at position 4
Assay: flow cytometry, phage on peptide-loaded T2 cells

First: B2
Second: B3
The MFI of the first is higher: 20800 for the first, 108 for the second.

Target: T11, 017-mut5 peptide (…)/HLA-A*02:01 complex on T2 cells (human)
T11 construct: Alanine mutant at position 5
Assay: flow cytometry, phage on peptide-loaded T2 cells

First: B2
Second: B4
The MFI of the first is higher: 2710 for the first, 91.2 for the second.

With B3 the MFI was 107.

Target: T4, Foxp3-7 peptide/HLA-A*02:01 complex on …
Assay: flow cytometry, phage on peptide-loaded T2 cells

Compared with B2, B4 is higher in MFI: 27500 for the first, 30400 for the second.

Work on B3 yielded an MFI of 39500.

Target: T12, 017-mut7 peptide (…)/HLA-A*02:01 complex on T2 cells (human)
T12 construct: Alanine mutant at position 7
Assay: flow cytometry, phage on peptide-loaded T2 cells

Compared with B2, B4 is lower in MFI: 99.6 for the first, 91.1 for the second.

For B3, the MFI was 96.4.

Target: T2, HLA-A*02:01 on T2 cells alone (no …)
Assay: flow cytometry, phage on T2 cells

B1: no binding.
B2: no binding.
B3: no binding.

Target: T4, Foxp3-7 peptide/HLA-A*02:01 complex on …
Assay: flow cytometry, phage on T2 + Foxp3-7 peptide; secondary only 116, unstained 93.8

Going from B1 to B2, the “Median:FITC-A” value rises from 428 to 4070.

In the case of B3, the “Median:FITC-A” value is reported as 873.

Target: T2, HLA-A*02:01 on T2 cells alone (no …)
Assay: flow cytometry, phage on T2 without peptide; secondary only 100, unstained 99.5

For B1, the “Median:FITC-A” value was 138.

Target: T4, Foxp3-7 peptide/HLA-A*02:01 complex on …
Assay: flow cytometry, phage on T2 + Foxp3-7 peptide; secondary only 318, unstained 95.8

Going from B6 to B7, the “Median:FITC-A” value rises from 1010 to 1030.

Going from B2 to B4, the “Median:FITC-A” value falls from 1640 to 732.

Compared with B8, B3 is higher in “Median:FITC-A” value: 1050 for the first, 1740 for the second.

Target: T3, T2+EW
Assay: flow cytometry, phage on T2 + EW peptide; secondary only 113, unstained 94.7

For B1, the “Median:FITC-A” value was 143.

Target: T4, Foxp3-7 peptide/HLA-A*02:01 complex on …
Assay: flow cytometry, phage on T2 + Foxp3-7 peptide; secondary only 104, unstained 81.7

First: B1
Second: B2
The “Median:FITC-A” value of the first is lower: 2220 for the first, 3840 for the second.

First: B4
Second: B3
The “Median:FITC-A” value of the first is higher: 4370 for the first, 2790 for the second.
